Ends that are not written are not given here. * marks the point of attachment. Dansyl = CN(C)c1cccc2c(S(=O)(=O)*)cccc12
Molecular target: PDZ1 NHERF1 Y38W
Experiment: FRET or BRET; equilibrium fluorescence titration, FRET between Trp38 (donor) and dansyl (acceptor), excitation 280 nm; 50 mM Na phosphate, pH 7.2, 300 mM NaCl, 5 mM DTT, 20% DMSO, 25 °C; without RS5517

Kd: 10 µM
B1: Dansyl-NDSLL, dansylated peptide of the C-terminal sequence of the β2-adrenergic receptor (peptide)
peptide: Dansyl-NDSLL

Source: article PMC6002344
